B1: human trophinin (other)
chain: MDIDCLTREELGDDSQAWSRFSFEIEARAQENADASTNVNFSRGASTRAGFSDRASISFNGAPSSSGGFSGGPGITFGVAPSTSASFSNTASISFGGTLSTSSSFSSAASISFGCAHSTSTSFSSEASISFGGMPCTSASFSGGVSSSFSGPLSTSATFSGGASSGFGGTLSTTAGFSGVLSTSTSFGSAPTTSTVFSSALSTSTGFGGILSTSVCFGGSPSSSGSFGGTLSTSICFGGSPCTSTGFGGTLSTSVSFGGSSSTSANFGGTLSTSICFDGSPSTGAGFGGALNTSASFGSVLNTSTGFGGAMSTSADFGGTLSTSVCFGGSPGTSVSFGSALNTNAGYGGAVSTNTDFGGTLSTSVCFGGSPSTSAGFGGALNTNASFGCAVSTSASFSGAVSTSACFSGAPITNPGFGGAFSTSAGFGGALSTAADFGGTPSNSIGFGAAPSTSVSFGGAHGTSLCFGGAPSTSLCFGSASNTNLCFGGPPSTSACFSGATSPSFCDGPSTSTGFSFGNGLSTNAGFGGGLNTSAGFGGGLGTSAGFSGGLSTSSGFDGGLGTSAGFGGGPGTSTGFGGGLGTSAGFSGGLGTSAGFGGGLVTSDGFGGGLGTNASFGSTLGTSAGFSGGLSTSDGFGSRPNASFDRGLSTIIGFGSGSNTSTGFTGEPSTSTGFSSGPSSIVGFSGGPSTGVGFCSGPSTSGFSGGPSTGAGFGGGPNTGAGFGGGPSTSAGFGSGAASLGACGFSYG

For experiment [1], the target named is biotinylated GST (Schistosoma japonicum (Blood fluke), UniProt P08515 = GST, labeled with biotin succinamide). Briefly: staining of unpermeabilized HT-H, SNG-M and trophinin/tastin-transfected COS-1 cells, avidin-FITC. As for the experimental part:
(§1) To identify hydrophilic extracellular domains of human trophinin that mediate cell adhesion, individual domains were expressed and evaluated for specific binding to trophinin expressing cells. The trophinin extracellular domain fusion proteins GST551, GST552 and GST553, the GST-N-terminal trophinin domain (residue 1 to 66) and GST were labeled with biotin succinamide (Sigma). SNG-M, HT-H and COS-1 cells transfected with a mixture of human trophinin and tastin cDNA were grown on coverslips and processed for cell staining with the biotinylated proteins essentially as was described for the antibodies to the external domains of trophinin, except that avidin-FITC (Cappel) was used in place of a FITC-secondary antibody.

Experiment [2] deals with B1. The experiment is described as above. Here is the method: as §1

In the case of B1, the binding result in experiment [1] is “no binding”.

B2: biotinylated GST-N-terminal trophinin (other)
chain: {GST}-MDIDCLTREELGDDSQAWSRFSFEIEARAQENADASTNVNFSRGASTRAGFSDRASISFNGAPSSS
modifications: also: labeled with biotin succinamide (site not given here)
As to B2, the binding result in experiment [2] was “no binding”.

The values are drawn from US6111089, “Trophinin, trophinin-assisting proteins and methods to inhibit implantation” (The Burnham Institute, dated 2000).
